Experiments:
Test in all cases: Kinase Profiling Assay
Format in all cases: biochemical
Settings in all cases: 100 μM peptide
Pim-2(h) = Pim-2(h) (Homo sapiens, UniProt Q9P1W9)
How it was run: (§1)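 Off-target screen of MK2 peptide inhibitors, 266 human kinases, n = 2 per activity measurement.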

PKCβI(h) = PKCβI(h) (Homo sapiens, UniProt P05771)
How it was run: as §1

Abl(h) = Abl(h) (Homo sapiens, UniProt P00519)
How it was run: as §1

DMPK(h) = biological target: T1, DMPK(h) (Homo sapiens, UniProt Q09013)
T1 sequence (Q09013 1-629): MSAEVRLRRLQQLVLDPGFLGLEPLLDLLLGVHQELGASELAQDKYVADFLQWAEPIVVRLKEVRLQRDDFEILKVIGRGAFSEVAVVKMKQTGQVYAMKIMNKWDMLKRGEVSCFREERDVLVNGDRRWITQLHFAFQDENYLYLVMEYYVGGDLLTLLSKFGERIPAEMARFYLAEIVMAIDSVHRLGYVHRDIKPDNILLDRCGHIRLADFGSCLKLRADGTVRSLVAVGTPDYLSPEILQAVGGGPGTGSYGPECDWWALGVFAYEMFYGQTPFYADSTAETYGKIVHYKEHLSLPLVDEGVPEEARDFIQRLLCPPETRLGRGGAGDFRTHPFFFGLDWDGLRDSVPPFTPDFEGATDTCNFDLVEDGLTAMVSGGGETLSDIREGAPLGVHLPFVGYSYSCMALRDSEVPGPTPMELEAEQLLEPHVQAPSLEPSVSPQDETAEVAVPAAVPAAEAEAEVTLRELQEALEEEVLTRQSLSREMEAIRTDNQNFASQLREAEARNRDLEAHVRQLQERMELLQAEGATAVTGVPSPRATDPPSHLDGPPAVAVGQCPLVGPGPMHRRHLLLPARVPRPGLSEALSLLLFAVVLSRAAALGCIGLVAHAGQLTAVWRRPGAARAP
How it was run: as §1

CDK2/cyclinA(h) = CDK2/cyclinA(h) (Homo sapiens, UniProt P24941)
How it was run: as §1

Pim-1(h) = Pim-1(h) (Homo sapiens, UniProt P11309)
Chain of Pim-1(h) (P11309 whole entry): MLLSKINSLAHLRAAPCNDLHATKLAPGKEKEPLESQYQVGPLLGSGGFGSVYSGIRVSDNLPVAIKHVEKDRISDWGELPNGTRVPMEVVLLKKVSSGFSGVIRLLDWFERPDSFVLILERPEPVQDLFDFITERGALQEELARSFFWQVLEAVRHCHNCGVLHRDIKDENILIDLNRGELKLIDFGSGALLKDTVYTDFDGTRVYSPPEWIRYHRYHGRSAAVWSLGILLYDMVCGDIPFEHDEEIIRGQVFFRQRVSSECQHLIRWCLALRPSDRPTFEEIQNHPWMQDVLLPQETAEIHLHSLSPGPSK
How it was run: as §1

Rsk1(h) = biological target: T2, Rsk1(h) (Homo sapiens, UniProt Q15418)
T2 construct: purchased Millipore (IC50 Profiler Express service)
T2 sequence (Q15418 whole entry): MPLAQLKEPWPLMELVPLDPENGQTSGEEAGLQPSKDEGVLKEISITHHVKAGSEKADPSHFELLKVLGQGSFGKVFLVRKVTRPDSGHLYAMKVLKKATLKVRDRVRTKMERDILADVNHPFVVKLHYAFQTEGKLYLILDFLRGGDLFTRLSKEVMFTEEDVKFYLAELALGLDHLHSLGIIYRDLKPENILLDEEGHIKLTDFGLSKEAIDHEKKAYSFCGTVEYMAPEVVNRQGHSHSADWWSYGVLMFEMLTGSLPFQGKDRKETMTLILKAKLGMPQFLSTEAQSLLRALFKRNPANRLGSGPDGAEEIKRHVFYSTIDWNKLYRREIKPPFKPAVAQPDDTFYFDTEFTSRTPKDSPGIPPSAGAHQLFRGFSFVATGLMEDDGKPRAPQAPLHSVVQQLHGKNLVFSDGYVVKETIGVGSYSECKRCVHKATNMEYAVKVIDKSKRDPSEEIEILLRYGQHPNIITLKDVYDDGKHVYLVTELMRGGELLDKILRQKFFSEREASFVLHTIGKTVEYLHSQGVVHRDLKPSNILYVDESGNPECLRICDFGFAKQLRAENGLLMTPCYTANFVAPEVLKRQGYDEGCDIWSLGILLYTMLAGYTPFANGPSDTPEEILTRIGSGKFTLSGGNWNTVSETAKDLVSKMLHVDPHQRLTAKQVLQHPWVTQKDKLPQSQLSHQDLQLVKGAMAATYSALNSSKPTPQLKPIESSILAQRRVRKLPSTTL
How it was run: as §1

ASK1(h) = biological target: T3, ASK1(h) (Homo sapiens, UniProt Q99683)
T3 sequence (Q99683 1-1374): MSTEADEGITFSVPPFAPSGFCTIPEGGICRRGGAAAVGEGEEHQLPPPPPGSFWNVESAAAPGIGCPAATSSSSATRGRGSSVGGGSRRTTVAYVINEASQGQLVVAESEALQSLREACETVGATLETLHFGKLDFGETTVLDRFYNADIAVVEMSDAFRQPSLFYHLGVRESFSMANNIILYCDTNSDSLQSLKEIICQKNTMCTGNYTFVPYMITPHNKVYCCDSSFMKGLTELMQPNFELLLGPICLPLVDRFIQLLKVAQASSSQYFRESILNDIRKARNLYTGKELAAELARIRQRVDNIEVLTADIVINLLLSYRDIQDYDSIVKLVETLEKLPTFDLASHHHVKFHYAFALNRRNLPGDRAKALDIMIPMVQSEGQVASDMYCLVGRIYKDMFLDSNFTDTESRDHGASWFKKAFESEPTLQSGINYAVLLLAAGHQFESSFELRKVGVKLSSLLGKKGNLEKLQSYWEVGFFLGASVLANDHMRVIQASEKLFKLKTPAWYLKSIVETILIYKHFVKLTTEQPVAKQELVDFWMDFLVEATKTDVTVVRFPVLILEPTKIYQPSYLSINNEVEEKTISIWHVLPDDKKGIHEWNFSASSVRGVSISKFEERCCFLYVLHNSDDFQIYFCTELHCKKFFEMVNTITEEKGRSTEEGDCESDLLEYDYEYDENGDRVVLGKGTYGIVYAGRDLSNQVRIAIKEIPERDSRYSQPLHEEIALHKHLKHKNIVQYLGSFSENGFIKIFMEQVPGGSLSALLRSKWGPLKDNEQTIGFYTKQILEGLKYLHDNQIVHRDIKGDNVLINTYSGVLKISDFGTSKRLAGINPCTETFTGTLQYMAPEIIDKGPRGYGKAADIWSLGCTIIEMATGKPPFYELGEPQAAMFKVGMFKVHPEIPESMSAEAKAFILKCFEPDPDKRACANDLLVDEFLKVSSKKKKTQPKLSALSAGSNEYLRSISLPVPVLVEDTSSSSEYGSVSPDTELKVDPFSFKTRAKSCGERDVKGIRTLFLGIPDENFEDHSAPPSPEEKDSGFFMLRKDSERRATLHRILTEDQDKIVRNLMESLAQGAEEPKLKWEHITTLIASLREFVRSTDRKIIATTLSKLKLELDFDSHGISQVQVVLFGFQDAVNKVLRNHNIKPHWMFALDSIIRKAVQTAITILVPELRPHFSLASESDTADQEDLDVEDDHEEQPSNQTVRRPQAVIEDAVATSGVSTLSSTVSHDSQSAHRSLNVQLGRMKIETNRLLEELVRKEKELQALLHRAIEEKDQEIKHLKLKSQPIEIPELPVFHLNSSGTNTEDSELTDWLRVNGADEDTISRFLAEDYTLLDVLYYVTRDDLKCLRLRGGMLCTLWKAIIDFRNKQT
How it was run: as §1

Met(Y1248D)(h) = Met(Y1248D)(h) (Homo sapiens, UniProt P08581, Y1230D)
How it was run: as §1

Chain of Pim-2(h) (Q9P1W9 whole entry): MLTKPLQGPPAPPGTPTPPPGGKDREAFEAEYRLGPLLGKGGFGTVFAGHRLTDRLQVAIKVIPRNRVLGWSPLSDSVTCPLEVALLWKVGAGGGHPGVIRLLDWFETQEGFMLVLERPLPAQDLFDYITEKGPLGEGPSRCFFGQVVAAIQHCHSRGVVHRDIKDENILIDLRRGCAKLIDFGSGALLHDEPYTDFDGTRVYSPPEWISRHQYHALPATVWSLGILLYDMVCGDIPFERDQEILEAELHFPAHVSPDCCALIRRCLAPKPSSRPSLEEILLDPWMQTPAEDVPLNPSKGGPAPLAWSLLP
Chain of Abl(h) (P00519 whole entry): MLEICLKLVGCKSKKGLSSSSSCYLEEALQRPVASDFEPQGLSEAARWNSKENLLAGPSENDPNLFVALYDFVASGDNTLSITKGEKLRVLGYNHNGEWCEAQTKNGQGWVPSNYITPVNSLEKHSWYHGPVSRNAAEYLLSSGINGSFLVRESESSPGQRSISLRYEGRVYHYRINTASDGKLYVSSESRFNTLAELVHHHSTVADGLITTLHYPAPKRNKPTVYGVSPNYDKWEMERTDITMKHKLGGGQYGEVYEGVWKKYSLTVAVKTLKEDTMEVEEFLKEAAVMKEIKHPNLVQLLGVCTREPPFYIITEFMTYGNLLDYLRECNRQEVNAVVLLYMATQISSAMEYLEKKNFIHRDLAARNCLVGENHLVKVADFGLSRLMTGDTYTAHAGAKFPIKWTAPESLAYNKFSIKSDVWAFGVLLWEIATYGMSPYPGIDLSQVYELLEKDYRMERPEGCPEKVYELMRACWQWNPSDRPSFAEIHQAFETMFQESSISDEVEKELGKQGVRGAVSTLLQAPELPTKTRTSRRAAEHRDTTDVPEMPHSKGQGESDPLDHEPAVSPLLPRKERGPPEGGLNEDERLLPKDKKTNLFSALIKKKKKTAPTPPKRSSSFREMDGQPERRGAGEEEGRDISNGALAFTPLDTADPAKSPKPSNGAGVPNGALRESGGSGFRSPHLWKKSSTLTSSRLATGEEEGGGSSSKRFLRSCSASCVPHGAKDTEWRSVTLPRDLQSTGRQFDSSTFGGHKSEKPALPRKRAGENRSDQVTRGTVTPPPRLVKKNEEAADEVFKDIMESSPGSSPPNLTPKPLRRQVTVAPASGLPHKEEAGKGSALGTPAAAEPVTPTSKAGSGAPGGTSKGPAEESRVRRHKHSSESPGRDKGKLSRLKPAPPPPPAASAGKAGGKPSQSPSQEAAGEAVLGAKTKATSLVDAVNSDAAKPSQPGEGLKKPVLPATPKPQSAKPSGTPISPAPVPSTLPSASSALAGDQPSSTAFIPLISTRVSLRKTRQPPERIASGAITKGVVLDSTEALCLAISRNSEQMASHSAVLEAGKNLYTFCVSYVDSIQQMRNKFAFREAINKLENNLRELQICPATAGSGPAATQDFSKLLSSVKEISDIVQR
Chain of PKCβI(h) (P05771 whole entry): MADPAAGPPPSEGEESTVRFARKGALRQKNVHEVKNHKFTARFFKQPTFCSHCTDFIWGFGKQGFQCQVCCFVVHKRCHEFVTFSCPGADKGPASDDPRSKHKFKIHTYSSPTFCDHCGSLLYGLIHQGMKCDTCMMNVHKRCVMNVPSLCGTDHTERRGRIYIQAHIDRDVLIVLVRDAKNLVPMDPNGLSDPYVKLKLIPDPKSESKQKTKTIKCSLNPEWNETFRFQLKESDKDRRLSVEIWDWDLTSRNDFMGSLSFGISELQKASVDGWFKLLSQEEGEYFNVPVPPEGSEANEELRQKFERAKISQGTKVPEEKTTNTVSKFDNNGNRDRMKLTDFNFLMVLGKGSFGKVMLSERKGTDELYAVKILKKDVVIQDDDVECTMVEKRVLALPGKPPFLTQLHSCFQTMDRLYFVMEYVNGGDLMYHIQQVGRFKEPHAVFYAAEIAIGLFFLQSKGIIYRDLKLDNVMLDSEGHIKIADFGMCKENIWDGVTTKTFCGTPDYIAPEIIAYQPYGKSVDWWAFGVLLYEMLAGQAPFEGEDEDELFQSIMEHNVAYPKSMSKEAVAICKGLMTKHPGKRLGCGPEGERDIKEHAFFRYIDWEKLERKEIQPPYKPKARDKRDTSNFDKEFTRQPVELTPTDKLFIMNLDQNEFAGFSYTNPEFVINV

Sequence | Pim-2(h) % activity (Pim-2(h)) [%] | PKCβI(h) % activity (PKCβI(h)) [%] | Abl(h) % activity (Abl(h)) [%] | DMPK(h) % activity (DMPK(h)) [%] | CDK2/cyclinA(h) % activity (CDK2/cyclinA(h)) [%] | Pim-1(h) % activity (Pim-1(h)) [%] | Rsk1(h) % activity (Rsk1(h)) [%] | ASK1(h) % activity (ASK1(h)) [%] | Met(Y1248D)(h) % activity (Met(Y1248D)(h)) [%]
HRRIKAWLKKIKALARQLGVAA (Mammalian) [MMI-0500] | 46 | 1 | 16 | 12 | 87 | 0 | 34 | −4 | 218
FAKLAARLYRKALARQLGVAA [MMI-0300] | 76 | 78 | 69 | 59 | 86 | 8 | 46 | 80 | 
YARAAARQARAKALNRQLGVA (Mammalian) [MMI-0200] | 74 | 98 |  | 66 |  | 18 |  | 101 | 118
KAFAKLAARLYRKALARQLGVAA [MMI-0400] | 92 | 78 | 84 | 54 | 92 | 7 | 54 | 69 | 31

Reference: US10562947B2, “Compositions and methods for preventing or treating diseases, conditions or processes characterized by aberrant fibroblast proliferation and extracellular matrix deposition” (MOERAE MATRIX, INC., priority 2011, dated 2020)
